The results in this text go back to US20130344070A1.

Test [1] addresses human CCR2 (CC-Chemokine Receptor 2) (human) (UniProt P41597). Nature of the test: cell-based or functional assay.
For another test, the target named is murine CCR2 (murine) (UniProt P51683). Description: cell-based or functional assay.
Chain of murine CCR2 (murine) (P51683 whole entry): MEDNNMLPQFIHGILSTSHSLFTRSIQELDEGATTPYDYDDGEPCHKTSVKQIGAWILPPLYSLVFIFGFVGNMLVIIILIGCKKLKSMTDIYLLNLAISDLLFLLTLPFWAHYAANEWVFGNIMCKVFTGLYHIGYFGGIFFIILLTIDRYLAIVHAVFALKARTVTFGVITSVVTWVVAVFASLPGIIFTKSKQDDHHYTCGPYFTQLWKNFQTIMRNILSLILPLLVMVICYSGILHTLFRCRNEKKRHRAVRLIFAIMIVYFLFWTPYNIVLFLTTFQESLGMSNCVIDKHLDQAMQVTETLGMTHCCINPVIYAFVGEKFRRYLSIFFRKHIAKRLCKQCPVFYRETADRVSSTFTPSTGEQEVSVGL

Chain of human CCR2 (CC-Chemokine Receptor 2) (human) (P41597 whole entry): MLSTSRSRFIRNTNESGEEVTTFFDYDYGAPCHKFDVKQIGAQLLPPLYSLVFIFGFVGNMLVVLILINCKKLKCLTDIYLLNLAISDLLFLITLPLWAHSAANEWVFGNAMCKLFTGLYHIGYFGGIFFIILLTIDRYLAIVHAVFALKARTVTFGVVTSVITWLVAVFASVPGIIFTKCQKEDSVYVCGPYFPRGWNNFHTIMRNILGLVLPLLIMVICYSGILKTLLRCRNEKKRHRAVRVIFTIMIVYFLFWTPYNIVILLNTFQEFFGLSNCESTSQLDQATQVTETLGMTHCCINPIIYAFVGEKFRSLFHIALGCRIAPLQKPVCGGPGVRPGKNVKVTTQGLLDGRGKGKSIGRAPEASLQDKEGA

Consider “human MCP-1 (PROSPEC # CHM-271) (from UniProt P13500 24-99) (ligand)”, for which, in test [1], the EC50 of MCP-1, MCP-1-induced calcium flux, THP-1 cells was 3300 pM; the EC50 of MCP-1, MCP-1-induced calcium flux, primary human monocytes came to 3790 pM; the EC50 of MCP-1, MCP-1-induced chemotaxis, THP-1 cells came out at 800 pM; the EC50 of MCP-1, MCP-1-induced chemotaxis, primary human monocytes is 389 pM.

“mMCP-1 (mouse MCP-1) (from UniProt P10148 24-148) (ligand)” displayed an EC50 of mMCP-1, mMCP-1-induced chemotaxis, WEHI 274.1 cells in the test with murine CCR2 (murine) of 120 pM.
